# Data from article PMC5614898.
# T1: FOXA2-DBD without wing 2 (human, UniProt Q9Y261 157-239)
# T1 sequence: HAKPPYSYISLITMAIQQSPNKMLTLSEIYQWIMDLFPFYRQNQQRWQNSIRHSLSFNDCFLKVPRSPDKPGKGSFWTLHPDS
# Molecular target: T1, FOXA2-DBD without wing 2
# Assay: ITC
binder,measurement,value
DBE2 (Daf-16 family binding element 2) (dsDNA) DNA 1: TGCAAAATGTAAACAAGACT DNA 2: AGTCTTGTTTACATTTTGCA,Kd,3.5 ± 0.3 µM
